Reference: patent publication US20100189760A1

Target: neural stem cell surface (cell surface molecule(s) of NSCs, not identified) (rat (adult hippocampus, stated in Example 1))
Assay: flow cytometry, GFP bacterial clone displaying the peptide on NSCs

Row | Binder | % NSCs with Bacteria [%]
1 | QGCAFVTYWACIF [clone Co-16 peptide] | 71.9
2 | IWCGSRFGCWCKP [clone 7C-5 peptide] | 65.6
3 | LVCNRQNPWVCYI [clone Co-23 peptide] | 71.1
4 | VWCGMFGKRRCVT [clone Co-22 peptide] | 75.6
5 | WTWESAFAGRWEVGD [clone Co-8 peptide] | 61.7
6 | YMCMSRGDATCDV [clone 7C-4 peptide] | 62
7 | DLCTYGHLWLGNGRP [clone 15-59 peptide] | 22.5
8 | ESCWYQIMYKCAN [clone 7C-2 peptide] | 55.2
9 | LECPGESKYYCIY [clone Co-11 peptide] | 72.7
10 | WNCIKGSSWACVW [clone 7C-21 peptide] | 75.5
11 | WDCGKKNAWMCIW [clone Co-5 peptide] | 67.4
12 | LCCESYICALCHY [clone 7C-11 peptide] | 37.7
13 | SKCWGWTPYYCVA [clone Co-9 peptide] | 75.7
14 | WFCLLGRSAYCVR [clone 7C-3 peptide] | 71.9
15 | WVCLWRHRGDCSI [clone Co-12 peptide] | 74.3
16 | STCSWVSSYVCIM [clone Co-13 peptide] | 64.8
17 | SLCAAYNRWACIW [clone Co-1 peptide] | 73.8
18 | WWCDMRGDSRCSG [clone 7C-24 peptide] | 61.7
19 | WVCIWERFKSCNE [clone 7C-20 peptide] | 65.7
20 | WSCPKVNQYACFW [clone Co-2 peptide] | 74.8
21 | LECTERGDFNCFV [clone 7C-7 peptide] | 47.8
22 | GFVLVWSYTCRCWGK [clone 15-50 peptide] | 64.9
23 | GGCRWYAKWVCVW [clone Co-3 peptide] | 75.7

Row | Binder | % NSCs with Bacteria [%]
24 | WVCNKLGVYACEY [clone 7C-19 peptide] | 20.5
25 | QCCQLRGDAVCNC [clone 7C-15 peptide] | 54
26 | LNCAMYNACIW [clone 7C-14 peptide] | 54.5
27 | WLCLDKNCMACVW [clone 7C-8 peptide] | 68.8
28 | WYCFRENKYVCVM [clone 7C-1 peptide] | 75.2
29 | ESGLKVMCMKYYCMA [clone 15-52 peptide] | 63.3
30 | WMCSGVQPNACVW [clone 7C-22 peptide] | 46.9
31 | RRELVRMTDWVWVSG [clone 15-32 peptide] | 70.4
32 | LEDAMGWALSWGHIW [clone 15-6 peptide] | 70.2
33 | RLCCWKTQYFCEI [clone Co-20 peptide] | 70.9
34 | DHKFGLVMLNKYAYAG [clone 15-2 peptide] | 75.9
35 | MYCERDSKYWCIH [clone Co-21 peptide] | 70.9
36 | GECFYYVMNTCVW [clone 7C-6 peptide] | 61.8
37 | FWCIRGEYWVCDR [clone 7C-12 peptide] | 64.5
38 | WECAEESKFWCVF [clone Co-17 peptide] | 72.1
39 | WWCKKPEYWYCIW [clone Co-18 peptide] | 71.3
40 | WQCGRFWCIHCLW [clone Co-19 peptide] | 50.6
41 | WVCNDLIHHFCVW [clone Co-15 peptide] | 70.9
42 | KLCCFDKGYYCMR [clone 7C-9 peptide] | 71.3
43 | WRCLGDGYHACVR [clone Co-10 peptide] | 72.7
44 | WLCKGSNKYMCEW [clone 7C-17 peptide] | 67.8
45 | SDWSVLLSCERWYCI [clone 15-16 peptide] | 63.9
